Data from publication PMC11633057, “Targeting MarA N‐terminal domain dynamics to prevent DNA binding”.

Experiments:
[1] = molecular target: T1, MarA I13C/M47C I11C;M45C (Escherichia coli MG1655) (UniProt P0ACH5); experiment: EMSA; settings: EMSA: 20 mM Hepes pH 8, 100 mM MgCl2, 100 mM EDTA, 0.3 mg/mL BSA, +/- DTT, 0.8 uM MarA, DNA 15 nM (200 bp) or 200 nM (30 bp), 20 min 37 C, 8% native gel, SYBR …
T1 sequence: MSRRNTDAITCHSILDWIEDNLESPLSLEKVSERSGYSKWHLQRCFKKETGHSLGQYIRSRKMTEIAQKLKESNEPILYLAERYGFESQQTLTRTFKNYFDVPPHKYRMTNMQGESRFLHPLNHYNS

[2] = molecular target: T2, MarA I16C/M47C I14C;M45C (Escherichia coli MG1655) (UniProt P0ACH5); experiment: EMSA; settings: EMSA: 20 mM Hepes pH 8, 100 mM MgCl2, 100 mM EDTA, 0.3 mg/mL BSA, +/- DTT, 0.8 uM MarA, DNA 15 nM (200 bp) or 200 nM (30 bp), 20 min 37 C, 8% native gel, SYBR …
T2 sequence: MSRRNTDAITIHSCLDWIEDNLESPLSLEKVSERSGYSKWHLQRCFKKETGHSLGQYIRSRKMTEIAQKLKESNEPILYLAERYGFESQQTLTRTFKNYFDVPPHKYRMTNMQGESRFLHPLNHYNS

[3] = molecular target: T3, MarA S62C/L121C S60C;L119C (Escherichia coli MG1655) (UniProt P0ACH5); experiment: EMSA; settings: EMSA: 20 mM Hepes pH 8, 100 mM MgCl2, 100 mM EDTA, 0.3 mg/mL BSA, +/- DTT, 0.8 uM MarA, DNA 15 nM (200 bp) or 200 nM (30 bp), 20 min 37 C, 8% native gel, SYBR …
T3 sequence: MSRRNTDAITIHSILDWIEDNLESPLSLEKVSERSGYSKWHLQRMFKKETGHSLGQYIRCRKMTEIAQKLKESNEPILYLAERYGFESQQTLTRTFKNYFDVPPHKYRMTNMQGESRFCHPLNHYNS

[4] = molecular target: T4, MarA WT (Escherichia coli MG1655) (UniProt P0ACH5); experiment: EMSA; settings: EMSA: 20 mM Hepes pH 8, 100 mM MgCl2, 100 mM EDTA, 0.3 mg/mL BSA, +/- DTT, 0.8 uM MarA, DNA 15 nM (200 bp) or 200 nM (30 bp), 20 min 37 C, 8% native gel, SYBR …
T4 sequence: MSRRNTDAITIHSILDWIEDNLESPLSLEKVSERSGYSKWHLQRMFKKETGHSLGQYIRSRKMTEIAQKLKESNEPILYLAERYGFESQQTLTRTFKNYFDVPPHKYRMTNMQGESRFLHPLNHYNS

MarA WT = molecular target: T5, MarA WT (Escherichia coli MG1655, UniProt P0ACH5 1-127); experiment: EMSA; no DTT; EMSA: 20 mM Hepes pH 8, 100 mM MgCl2, 100 mM EDTA, 0.3 mg/mL BSA, +/- DTT, 0.8 uM MarA, DNA 15 nM (200 bp) or 200 nM (30 bp), 20 min 37 C, 8% native gel, SYBR green; settings: protein: recombinant; tags: N-terminal 6xHis (pET-15b); blunt
T5 sequence: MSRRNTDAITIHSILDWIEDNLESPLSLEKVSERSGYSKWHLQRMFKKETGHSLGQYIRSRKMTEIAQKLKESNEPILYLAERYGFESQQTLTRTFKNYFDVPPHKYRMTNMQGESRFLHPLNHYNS

MarA I16C/M47C = molecular target: T6, MarA I16C/M47C (Escherichia coli MG1655, UniProt P0ACH5 1-127, I14C;M45C); experiment: EMSA; 0.5 or 1 mM DTT; EMSA: 20 mM Hepes pH 8, 100 mM MgCl2, 100 mM EDTA, 0.3 mg/mL BSA, +/- DTT, 0.8 uM MarA, DNA 15 nM (200 bp) or 200 nM (30 bp), 20 min 37 C, 8% native gel, SYBR green; settings: protein: recombinant; tags: N-terminal 6xHis (pET-15b); blunt
T6 sequence: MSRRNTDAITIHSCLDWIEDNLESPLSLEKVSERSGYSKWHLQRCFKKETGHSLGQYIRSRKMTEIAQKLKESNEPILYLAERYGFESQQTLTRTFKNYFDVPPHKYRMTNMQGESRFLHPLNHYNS

MarA I13C/M47C = molecular target: T7, MarA I13C/M47C (Escherichia coli MG1655, UniProt P0ACH5 1-127, I11C;M45C); experiment: EMSA; no DTT (disulfide); EMSA: 20 mM Hepes pH 8, 100 mM MgCl2, 100 mM EDTA, 0.3 mg/mL BSA, +/- DTT, 0.8 uM MarA, DNA 15 nM (200 bp) or 200 nM (30 bp), 20 min 37 C, 8% native gel, SYBR green; settings: protein: recombinant; tags: N-terminal 6xHis (pET-15b); blunt
T7 sequence: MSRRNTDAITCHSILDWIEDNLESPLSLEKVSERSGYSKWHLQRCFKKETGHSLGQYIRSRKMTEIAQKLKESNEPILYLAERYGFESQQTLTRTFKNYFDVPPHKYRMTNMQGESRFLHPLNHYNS

GTTATCCTGTGTATCTGGGTTATCAGCGAAAAGTATAAGGGGTAAACAAGGATAAAGTGTCACTCTTTAGCTAGCCTTGCATCGCATTGAACAAAACTTGAACCGATTTAGCAAAACGTGGCATCGGTCAATTCATTCATTTGACTTATACTTGCCTGGGCAATATTATCCCCTGCAACTAATTACTTGCCAGGGCAAC (double strand) [marRAB 200-bp fragment]
binds: binding [1] | binding [2] | binding [3] | binding [4]

B1: marRAB 30-bp marbox (dsDNA)
DNA 1: GAACCGATTTAGCAAAACGTGGCATCGGTC
DNA 2: GACCGATGCCACGTTTTGCTAAATCGGTTC
binds: binding result (MarA WT) | binding result (MarA I16C/M47C) | binding result (MarA I13C/M47C)
